The text below walks through data of the supplement of paper PMC11780869.

The series deals with Bacillus subtilis. As to the kind of experiment: cleaved RNA product abundance (RNA/gDNA barcode ratio) relative to median wild-type variant (ratio to wild type); higher = more accumulation of the downstream cleavage product. As to conditions: cleavage site: cggR-gapA (positions -7 to +36 mutated). Summed up: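 Oligos with a 9% error rate were used to build barcoded, mutagenized RNase Y cleavage-site windows within truncated aprE or tetM reporter mRNAs, which were integrated into the B. subtilis chromosome. Cultures were grown in LB at 37°C between OD600 0.0003 and 0.3. Cleaved RNA was gel-selected, reverse transcribed and barcode-sequenced, as were genomic DNA barcodes, and UMIs were collapsed. Cleaved product abundance is the scaled RNA:gDNA barcode ratio, with the median construct carrying the unmutated site as reference.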

Where [1] appears, read: experiment (reporter, strain, medium): exp 4a: truncated aprE reporter, strain BJT201 with 2% xylose (RNase J1 expressed).
Where [2] appears, read: experiment (reporter, strain, medium): exp 2b: truncated aprE reporter, strain BJT200.

For the sequence “ACAGACGAAGGAGCCGCAAAGAAGTTATTAAGCGATGAATAATCCCTCAATATAAATACCTCTCACTTATTTAAA”, the “cleaved RNA product abundance” value under setting [1] came out at 0.118.

Turning to “ACAGACGAAGGAGCCGCAAAGAAGTTATTAAGCGATGAATAATCCCTCAATATAAATATCTCTCACTTATTTAAA”, the “cleaved RNA product abundance” value reads like this: under setting [2], 0.0916; under setting [1], 0.116; (experiment (reporter, strain, medium): exp 6: tetM reporter, strain 168) 0.132.

Regarding “ACAGACGAAGGAGCCGCAAAGAAGTTATTAAGCGATGAATAATCCCTCAATATAAATATTTCTCACTTATTTAAA”, the “cleaved RNA product abundance” value is, setting by setting: under setting [2], 0.0865; under setting [1], 0.171. With “ACAGACGAAGGAGCCGCAAAGAAGTTATTAAGCGATGAATAATCCCTCAATATAGATATCTCTCACTTATTTAAA”, the “cleaved RNA product abundance” value under setting [1] is 0.0736. On to “ACAGACGAAGGAGCCGCAAAGAAGTTATTAAGCGATGAATAATCCCTCAATATTAATATCTCTCACTTATTTAAA”, for which the “cleaved RNA product abundance” value under setting [1] worked out at 0.151. In the case of “ACAGACGAAGGAGCCGCAAAGAAGTTATTAAGCGATGAATAATCCCTCACTATAAATATCTCTCACTTATTTAAA”, the “cleaved RNA product abundance” value under setting [2] came out at 0.0669 and the “cleaved RNA product abundance” value under setting [1] is 0.0749. Take “ACAGACGAAGGAGCCGCAAAGAAGTTATTAAGCGATGAATAATCCCTCATAATAAATATCTCTCACTTATTTAAA”: the “cleaved RNA product abundance” value under setting [2] worked out at 0.165. On to “ACAGACGAAGGAGCCGCAAAGAAGTTATTAAGCGATGAATAATCCCTCCATATAAATATCTCTCACTTATTTAAA”, for which the “cleaved RNA product abundance” value under setting [1] is 0.0952. The same measure, in the same setting: the same measure for “ACAGACGAAGGAGCCGCAAAGAAGTTATTAAGCGATGAATAATCCCTCTATATAAATATCTCTCACTTATTTAAA”: 0.0811; for “ACAGACGAAGGAGCCGCAAAGAAGTTATTAAGCGATGAATAATCCCTGAATATAAATATCTCTCACTTATTTAAA”: 0.072; for “ACAGACGAAGGAGCCGCAAAGAAGTTATTAAGCGATGAATAATCCCTTAATATAAATATCTCTCACTTATTTAAA”: 0.301. On the same count and under the same terms, the same measure for “ACAGACGAAGGAGCCGCAAAGAAGTTATTAAGCGATGAATAATCCGTCAATATAAATATCTCTCACTTATTTAAA”: 0.139.

On to “ACAGACGAAGGAGCCGCAAAGAAGTTATTAAGCGATGAATAATCCTTCAATATAAATATCTCTCACTTATTTAAA”, for which the “cleaved RNA product abundance” value was 0.0918 under setting [2] and 0.119 under setting [1]. The like results for “ACAGACGAAGGAGCCGCAAAGAAGTTATTAAGCGATGAATAATCGCTCAATATAAATATCTCTCACTTATTTAAA” were, in that order, 0.561 and 0.726.

Consider “ACAGACGAAGGAGCCGCAAAGAAGTTATTAAGCGATGAATAATCTCTCAATATAAATATCTCTCACTTATTTAAA”, for which, under setting [1], the “cleaved RNA product abundance” value is 0.0997. As to “ACAGACGAAGGAGCCGCAAAGAAGTTATTAAGCGATGAATAATGCCTCAATATAAATATCTCTCACTTATTTAAA”, under setting [1], the “cleaved RNA product abundance” value was determined as 0.112.

In the case of “ACAGACGAAGGAGCCGCAAAGAAGTTATTAAGCGATGAATAATTCCTCAATATAAATATCTCTCACTTATTTAAA”, the “cleaved RNA product abundance” value was 0.0741 under setting [2] and 0.096 under setting [1]. For the sequence “ACAGACGAAGGAGCCGCAAAGAAGTTATTAAGCGATGAATACTCCCTCAATATAAATATCTCTCACTTATTTAAA”, the “cleaved RNA product abundance” value under setting [1] stood at 0.102. As to “ACAGACGAAGGAGCCGCAAAGAAGTTATTAAGCGATGAATTATCCCTCAATATAAATATCTCTCACTTATTTAAA”, the “cleaved RNA product abundance” value runs as follows: under setting [2], 0.101; under setting [1], 0.101.

Turning to “ACAGACGAAGGAGCCGCAAAGAAGTTATTAAGCGATGACTAATCCCTCAATATAAATATCTCTCACTTATTTAAA”, the “cleaved RNA product abundance” value under setting [1] was 0.0948. Still for that read-out and setting: with “ACAGACGAAGGAGCCGCAAAGAAGTTATTAAGCGATGCATAATCCCTCAATATAAATATCTCTCACTTATTTAAA” the figure was 0.125; with “ACAGACGAAGGAGCCGCAAAGAAGTTATTAAGCGATGTATAATCCCTCAATATAAATATCTCTCACTTATTTAAA”, 0.08; with “ACAGACGAAGGAGCCGCAAAGAAGTTATTAAGCGATTAATAATCCCTCAACATAAATATCTCTCACTTATTTAAA”, 0.0653. As to “ACAGACGAAGGAGCCGCAAAGAAGTTATTAAGCGATTAATAATCCCTCAATATAAATATCTCTCACTTATTTAAA”, the “cleaved RNA product abundance” value under setting [2] amounted to 0.0842 and the “cleaved RNA product abundance” value under setting [1] was determined as 0.0983. With “ACAGACGAAGGAGCCGCAAAGAAGTTATTAAGCGATTAATAATTCCTCAATATAAATATCTCTCACTTATTTAAA”, under setting [1], the “cleaved RNA product abundance” value worked out at 0.0664.

“ACAGACGAAGGAGCCGCAAAGAAGTTATTAAGCGCTGAATAATCCCTCAATATAAATATCTCTCACTTATTTAAA”: the “cleaved RNA product abundance” value reads like this: under setting [2], 0.0756; under setting [1], 0.0581. In the same order, the values of “ACAGACGAAGGAGCCGCAAAGAAGTTATTAAGCTATGAATAATCCCTCAATATAAATATCTCTCACTTATTTAAA” are 0.0874 and 0.104.

Regarding “ACAGACGAAGGAGCCGCAAAGAAGTTATTAAGGAAAGAATAATCCCTCAATATAAATATCTCTCACTTATTTAAA”, under setting [1], the “cleaved RNA product abundance” value came to 0.0978. As to “ACAGACGAAGGAGCCGCAAAGAAGTTATTAAGGAACGAATAATCCCTCAATATAAATATCTCTCACTTATTTAAA”, the “cleaved RNA product abundance” value amounted to 0.0842 under setting [2] and 0.073 under setting [1]. “ACAGACGAAGGAGCCGCAAAGAAGTTATTAAGGAAGGAATAATCCCTCAATATAAATATCTCTCACTTATTTAAA”: the “cleaved RNA product abundance” value under setting [1] was 0.233.

“ACAGACGAAGGAGCCGCAAAGAAGTTATTAAGGAATAAATAATCCCTCAATACAAATATCTCTCACTTATTTAAA”: under setting [1], the “cleaved RNA product abundance” value came out at 0.0573. “ACAGACGAAGGAGCCGCAAAGAAGTTATTAAGGAATAAATAATCCCTCAATATAAATATCTCTCACTTATTTAAA”: the “cleaved RNA product abundance” value by setting is: under setting [2], 0.0901; under setting [1], 0.0868.

In the case of “ACAGACGAAGGAGCCGCAAAGAAGTTATTAAGGAATCAATAATCCCTCAATATAAATATCTCTCACTTATTTAAA”, the “cleaved RNA product abundance” value by setting is: under setting [2], 0.0834; under setting [1], 0.109. In the same order, the values of “ACAGACGAAGGAGCCGCAAAGAAGTTATTAAGGAATGAAAAATCCCTCAATATAAATATCTCTCACTTATTTAAA” are 0.0892 and 0.137. Consider “ACAGACGAAGGAGCCGCAAAGAAGTTATTAAGGAATGAACAATCCCTCAATATAAATATCTCTCACTTATTTAAA”, for which the “cleaved RNA product abundance” value under setting [2] came out at 0.0794 and the “cleaved RNA product abundance” value under setting [1] is 0.124. Take “ACAGACGAAGGAGCCGCAAAGAAGTTATTAAGGAATGAAGAATCCCTCAATATAAATATCTCTCACTTATTTAAA”: the “cleaved RNA product abundance” value reads like this: under setting [2], 0.0952; under setting [1], 0.17.

With “ACAGACGAAGGAGCCGCAAAGAAGTTATTAAGGAATGAATAAACCCTCAATATAAATATCTCTCACTTATTTAAA”, the “cleaved RNA product abundance” value reads like this: under setting [2], 0.0981; under setting [1], 0.11. Take “ACAGACGAAGGAGCCGCAAAGAAGTTATTAAGGAATGAATAACCCCTCAATATAAATATCTCTCACTTATTTAAA”: the “cleaved RNA product abundance” value under setting [1] was determined as 0.101.

Consider “ACAGACGAAGGAGCCGCAAAGAAGTTATTAAGGAATGAATAATACCTCAATATAAATATCTCTCACTTATTTAAA”, for which the “cleaved RNA product abundance” value under setting [2] worked out at 0.121 and the “cleaved RNA product abundance” value under setting [1] is 0.124. With “ACAGACGAAGGAGCCGCAAAGAAGTTATTAAGGAATGAATAATCACTCAATATAAATATCTCTCACTTATTTAAA”, the “cleaved RNA product abundance” value reads like this: under setting [2], 0.111; under setting [1], 0.124.

As for “ACAGACGAAGGAGCCGCAAAGAAGTTATTAAGGAATGAATAATCCATCAATATAAATATCTCTCACTTATTTAAA”, the “cleaved RNA product abundance” value came out at 0.0915 under setting [2] and 0.124 under setting [1].

Regarding “ACAGACGAAGGAGCCGCAAAGAAGTTATTAAGGAATGAATAATCCCACAATATAAATATCTCTCACTTATTTAAA”, the “cleaved RNA product abundance” value under setting [1] came out at 0.0935. With “ACAGACGAAGGAGCCGCAAAGAAGTTATTAAGGAATGAATAATCCCCCAATATAAATATCTCTCACTTATTTAAA”, the “cleaved RNA product abundance” value runs as follows: under setting [2], 0.122; under setting [1], 0.115.

As for “ACAGACGAAGGAGCCGCAAAGAAGTTATTAAGGAATGAATAATCCCGCAATATAAATATCTCTCACTTATTTAAA”, the “cleaved RNA product abundance” value under setting [1] worked out at 0.0576. As for “ACAGACGAAGGAGCCGCAAAGAAGTTATTAAGGAATGAATAATCCCTAAATATAAATATCTCTCACTTATTTAAA”, the “cleaved RNA product abundance” value is, setting by setting: under setting [2], 0.152; under setting [1], 0.147. For the sequence “ACAGACGAAGGAGCCGCAAAGAAGTTATTAAGGAATGAATAATCCCTCAAAATAAATATCTCTCACTTATTTAAA”, the “cleaved RNA product abundance” value runs as follows: under setting [2], 0.0937; under setting [1], 0.122. Consider “ACAGACGAAGGAGCCGCAAAGAAGTTATTAAGGAATGAATAATCCCTCAACATAAATATCTCTCACTTATTTAAA”, for which the “cleaved RNA product abundance” value under setting [1] was found to be 0.0941.

For “ACAGACGAAGGAGCCGCAAAGAAGTTATTAAGGAATGAATAATCCCTCAAGATAAATATCTCTCACTTATTTAAA”, the “cleaved RNA product abundance” value under setting [1] was determined as 0.0834. Take “ACAGACGAAGGAGCCGCAAAGAAGTTATTAAGGAATGAATAATCCCTCAATAAAAATATCTCTCACTTATTTAAA”: the “cleaved RNA product abundance” value is, setting by setting: under setting [2], 0.0974; under setting [1], 0.0766.

Consider “ACAGACGAAGGAGCCGCAAAGAAGTTATTAAGGAATGAATAATCCCTCAATATAAAAAACTCTCACTTATTTAAA”, for which the “cleaved RNA product abundance” value under setting [1] worked out at 0.0884. Turning to “ACAGACGAAGGAGCCGCAAAGAAGTTATTAAGGAATGAATAATCCCTCAATATAAAAATCTCTCACTTATTTAAA”, the “cleaved RNA product abundance” value is, setting by setting: under setting [2], 0.127; under setting [1], 0.161.

Regarding “ACAGACGAAGGAGCCGCAAAGAAGTTATTAAGGAATGAATAATCCCTCAATATAAACATCTCTCACTTATTTAAA”, the “cleaved RNA product abundance” value under setting [1] is 0.121.
